{"source": "paper PMC8639217", "about": "“Structure of New Binary and Ternary DNA Polymerase Complexes From Bacteriophage RB69”", "molecular_target": "T1, RB69 DNA polymerase exo- (RB69pol) (Enterobacteria phage RB69, UniProt Q38087 1-903, D222A;D327A)", "T1 sequence": "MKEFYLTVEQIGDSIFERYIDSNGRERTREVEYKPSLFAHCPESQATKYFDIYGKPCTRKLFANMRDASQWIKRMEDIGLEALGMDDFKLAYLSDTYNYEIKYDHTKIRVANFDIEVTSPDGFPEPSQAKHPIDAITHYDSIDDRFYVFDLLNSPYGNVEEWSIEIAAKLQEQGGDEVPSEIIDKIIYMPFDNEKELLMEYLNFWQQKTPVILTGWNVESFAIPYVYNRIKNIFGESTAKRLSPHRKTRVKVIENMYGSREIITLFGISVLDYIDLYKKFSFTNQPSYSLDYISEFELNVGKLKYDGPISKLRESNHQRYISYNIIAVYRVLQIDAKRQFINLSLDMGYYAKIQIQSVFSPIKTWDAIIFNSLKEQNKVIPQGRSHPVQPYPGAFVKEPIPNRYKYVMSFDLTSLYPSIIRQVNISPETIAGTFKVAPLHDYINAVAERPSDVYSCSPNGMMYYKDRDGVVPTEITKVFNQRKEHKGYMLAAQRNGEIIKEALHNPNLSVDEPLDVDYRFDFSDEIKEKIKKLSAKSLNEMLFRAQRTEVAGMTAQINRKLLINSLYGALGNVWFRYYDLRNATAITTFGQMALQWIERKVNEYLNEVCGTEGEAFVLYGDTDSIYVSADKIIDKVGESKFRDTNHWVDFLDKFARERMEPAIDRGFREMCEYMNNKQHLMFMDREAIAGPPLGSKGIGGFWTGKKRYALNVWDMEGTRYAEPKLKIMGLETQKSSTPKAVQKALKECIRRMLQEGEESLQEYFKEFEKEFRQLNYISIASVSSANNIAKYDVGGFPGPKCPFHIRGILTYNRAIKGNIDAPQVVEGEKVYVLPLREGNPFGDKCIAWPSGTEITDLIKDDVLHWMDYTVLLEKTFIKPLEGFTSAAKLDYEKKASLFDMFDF", "assay": "X-ray crystallography (2.2 A); MolA: closed ternary complex with dUpNpp, single Ca2+ at B site; rGMP in NTD; Complex (1:1.2 protein:DNA) in 10 mM Tris-HCl pH 8.0, 50 mM NaCl, 10 mM CaCl2, 5 mM DTT, 5% glycerol, 1 mM dUpNpp, 12 h 4 C; crystals at 21 C in 50 mM Na cacodylate pH 5.0, 2-7% isopropanol, 5 mM MgCl2, 2 mM NaCl, 12 mM spermine", "settings": "protein: recombinant; tags: N-terminal His6 removed with TEV protease; 15 bp; 5' overhang 1 nt on primer, 5' overhang 4 nt on template; 1:1", "data": [{"binder": "primer/template (P/T) duplex (dsDNA) DNA 1: GGAGCGGACTGCTTAC DNA 2: TCAAGTAAGCAGTCCGCTC", "values": [{"measurement": "binding result", "value": "binds"}]}]}
